The subject of this data set is MS2 coat protein. As to the kind of experiment: apparent KD of MS2 coat protein; designed switch direction (-1 OFF switch, 1 ON switch): -1; higher = weaker reporter binding. The essentials:
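The buffer was Tris-HCl pH 7.5 with KCl, MgCl2, BSA, DTT, tRNA and Tween-20. In it, SNAP-549-labelled MS2 coat protein was titrated in doubling steps from 0.7 or 1.5 nM to 3 µM over chip-bound RNA switches transcribed by stalled E. coli RNA polymerase on Illumina chips. Apparent KD is the per-design median over clusters of curve fits to normalised fluorescence.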

The mark [1] stands for this setting: Eterna round: R95, input ligand: FMN 200 uM.
Setting [2] is: Eterna round: R95, input ligand: microRNA oligo, concentration not stated.
[3] abbreviates: Eterna round: R95, input ligand: none.
The mark [4] stands for this setting: input ligand: microRNA oligo, concentration not stated.

For “AACGUCGAAGGAUAUACAUGAGGAUCACCCAUGUGGGACCUGUAAUCUCACCCAUCGUGUAGAAGGUUGAGGUA [Learberi] (Eterna round: R97, puzzle: Exclusion 3)”, the “apparent KD of MS2 coat protein” value runs as follows: (input ligand: FMN 200 uM) 29.9 nM; (input ligand: none) 35.6 nM.

On to “AAGAAACAUGAGGAUCACCCAUGUGAGGAUAUGUAAAAUAAAAGAAAAGAAAGAAUAAACAGAAGGCACAAAGG [Mat - Mod of Hog D14] (puzzle: Exclusion 1)”, for which the “apparent KD of MS2 coat protein” value is, setting by setting: under setting [1], 69.9 nM; under setting [2], 64.4 nM; under setting [3], 52.6 nM.

As for “CAUAUAGUAGUCAGGAUAUGCGAAGAGAGAAGGAAGUAGAAGGGACAUGAGGAUCACCCAUGUAUAUUGUAAAG [EX-4 Malc #3] (puzzle: Brourd's mod of Exclusion 4)”, the “apparent KD of MS2 coat protein” value reads like this: under setting [1], 29.6 nM; under setting [2], 28.9 nM; under setting [3], 28.4 nM.

Turning to “UUUGUGUCAGGAUAUGAGUCGUAGAACAAUAGUACUACGUCUCAGAAGGGACAUGAGGAUCACCCAUGUGCCUC [Fiskers Ex 4 Super Stable 44 mod 27] (puzzle: Exclusion 4)”, under setting [2], the “apparent KD of MS2 coat protein” value amounted to 34.9 nM.

On to “ACAUGAGGAUCACCCAUGUCAGGUGGGUCCUCUCCGGCUGUUGAGGAUAUAGUCCGGUAUCCGCGCUAGAAGGUGAGGGCCGGC [Aenatbe mod 17] (Eterna round: R96, puzzle: Exclusion NG 3)”, for which the “apparent KD of MS2 coat protein” value (input ligand: FMN 200 uM) came to 29.8 nM, the “apparent KD of MS2 coat protein” value under setting [4] came to 31.1 nM and the “apparent KD of MS2 coat protein” value (input ligand: none) worked out at 33.7 nM.

In the case of “UUAGUUUUGCAAGGAUAUGUUUAUUUAUAGUUGCCUCUUACAUGAGGAUCACCCAUGUUUUACUUACAGAAGGUGCAAUGAUUU [JR_ExcNG2_Sub034] (Eterna round: R96, puzzle: Exclusion NG 2)”, the “apparent KD of MS2 coat protein” value under setting [4] amounted to 138 nM.

In the case of “UAAAACGCAGAGGAUAUAUCAGAUCAAAGCUGCAUAGAAGGCUGCACAUGAGGAUCACCCAUGUGGUCUUUAAU [Mat - Exclusion 6 - JL Mod - D1] (Eterna round: R97, puzzle: Exclusion 6)”, the “apparent KD of MS2 coat protein” value (input ligand: FMN 200 uM) was found to be 206 nM and the “apparent KD of MS2 coat protein” value (input ligand: none) was 20.6 nM.

Turning to “CAUCAGGGAGGAUAUACAUAACUAAAAGGCUAGCAGUCCGUACAUGAGGAUCACCCAUGUAGAAGGCCCGAGUA [EX2 B.6] (Eterna round: R97, puzzle: Exclusion 2)”, the “apparent KD of MS2 coat protein” value is, setting by setting: (input ligand: FMN 200 uM) 46.9 nM; (input ligand: none) 20 nM.

Turning to “ACCUCUGAGGAGGAUAUACAGUGCGAAAGGACAGUAGAAGGCUUCACAUGAGGAUCACCCAUGUCGAAAAGUGA [EX6 #80] (Eterna round: R97, puzzle: Exclusion 6)”, the “apparent KD of MS2 coat protein” value is 127 nM (input ligand: FMN 200 uM) and 92.6 nM (input ligand: none).

For the sequence “CAUAGUUACUCAGGAUAUCAUACAUGAGGAUCACCCAUGUAAUAAAUGAGAAUUUCGAAUGUAUAUGAGAAGGGAGAAAUCUAC [Ostracism 59 - Jieux - Exclusion NG 2] (Eterna round: R96, puzzle: Exclusion NG 2)”, the “apparent KD of MS2 coat protein” value (input ligand: FMN 200 uM) was 69.2 nM, the “apparent KD of MS2 coat protein” value under setting [4] was determined as 13.4 nM and the “apparent KD of MS2 coat protein” value (input ligand: none) is 22.6 nM.

Consider “UGAUCUAGGCGAGGAUAUACAUGAGGAUCACCCAUGUAAGCGUGACAUGGAAACAUGUCACGUAUGUAGAAGGCGCCUAGAUCU [MOD ENG2 3.54 by JL] (Eterna round: R96, puzzle: Exclusion NG 2)”, for which the “apparent KD of MS2 coat protein” value stood at 8.6 nM under setting [4] and 13.3 nM (input ligand: none).

For the sequence “UUAUUAAUUAAGACUGCAAGAUCACAUGAGGAUCACCCAUGUCAGGAUAUCAGCUCGAUUAGAGCUGAGAAGGGACAAGCAGUC [ExNG3/15-A1] (Eterna round: R96, puzzle: Exclusion NG 3)”, the “apparent KD of MS2 coat protein” value by setting is: (input ligand: FMN 200 uM) 334 nM; under setting [4], 112 nM; (input ligand: none) 99.6 nM.

As for “AGUAGUUGUUUCCGUUCUUACAUGAGGAUCACCCAUGUUUCUUGACGUGCACGCGAUGCUCGUCAGACUACCAGAUG [salish99_TOv1_r3_057] (puzzle: Sensor v3, turn-off variant 1)”, the “apparent KD of MS2 coat protein” value is 57.6 nM under setting [1], 87.8 nM under setting [2] and 81.7 nM under setting [3].

Regarding “CGUCUGUAAGGAUAUGGUAGCAUUUACAUGAGGAUCACCCAUGUUACAUGGGACUAGUGACUAGAAGGUACGAACG [EX5 #54] (Eterna round: R97, puzzle: Exclusion 5)”, the “apparent KD of MS2 coat protein” value by setting is: (input ligand: FMN 200 uM) 106 nM; (input ligand: none) 142 nM.

With “AUAAGUGAUAAGGAUAUCACUAGCCUCGGCUAGUGAGAAGGUAUCACAUGAGGAUCACCCAUGUGUUCCAAUAA [Ex6/7-A2] (Eterna round: R97, puzzle: Exclusion 6)”, the “apparent KD of MS2 coat protein” value by setting is: (input ligand: FMN 200 uM) 1350 nM; (input ligand: none) 169 nM.

As to “GGUGCGUAUGUGAGGAUAUGCUGGUCCUUGGAUCGGCAGAAGGCACAUGAGGAUCACCCAUGUGGUGUCGUUCC [salish99_Bmod_ex4_100] (puzzle: Brourd's mod of Exclusion 4)”, the “apparent KD of MS2 coat protein” value under setting [2] came out at 114 nM.

In the case of “AGCUGUGGCCGAGGAUAUCUAACAAUCCAAACCGAAAUAUAAUCGGACAUGAGGAUCACCCAUGUAGAGAAGGCGGUCUCAGCA [Eli eng2 - 075] (Eterna round: R96, puzzle: Exclusion NG 2)”, under setting [4], the “apparent KD of MS2 coat protein” value came out at 32.7 nM.

Take “AUUUAACAUGAGGAUCACCCAUGUGAGGAUAUGCGAGUAUAGACUUCGGUCUGAUAGAGCAGAAGGCGCAGAUA [EX1 #8] (Eterna round: R97, puzzle: Exclusion 1)”: the “apparent KD of MS2 coat protein” value was determined as 67.7 nM (input ligand: FMN 200 uM) and 55.9 nM (input ligand: none).

Consider “AUAAUGUAAGGAUAUCAGUCGUACAGCGAUAGCUGUACGACUGAGAAGGUACAUGAGGAUCACCCAUGUGAUCA [E4/8-A4] (Eterna round: R97, puzzle: Exclusion 4)”, for which the “apparent KD of MS2 coat protein” value runs as follows: (input ligand: FMN 200 uM) 666 nM; (input ligand: none) 3680 nM.

Regarding “GGCCCGGGAGGAUAUACAUGAGGAUCACCCAUGUUGAGCUUGAGGAUCUUCGAGUUCGGUAGAAGGCCCGGGCC [-35.1, -32.9 kcal, 22% A, 1, 0] (Eterna round: R97, puzzle: Exclusion 3)”, the “apparent KD of MS2 coat protein” value is 201 nM (input ligand: FMN 200 uM) and 27.2 nM (input ligand: none).

In the case of “AGCAGACGAGGAUAUAGAUUUAGAUACAUGAGGAUCACCCAUGUAUACAUGUAUUUAGAUUUAGAAGGCGUCUGCU [E5/14-A1] (Eterna round: R97, puzzle: Exclusion 5)”, the “apparent KD of MS2 coat protein” value by setting is: (input ligand: FMN 200 uM) 1250 nM; (input ligand: none) 1340 nM.

For the sequence “GGUCCACGAGGAUAUCGAUUAUAGUACAUGAGGAUCACCCAUGUUGUCCAGGUUUCGUUUCGAGAAGGCGUGGGUU [LRO-Ex5-01] (puzzle: Exclusion 5)”, under setting [2], the “apparent KD of MS2 coat protein” value amounted to 88.1 nM.

In the case of “CUUUGAUGAGGAUAUCGAGGUUAGUACAUGAGGAUCACCCAUGUUAUCCAGGUGUCGGUUCGAGAAGGUAUUGGAC [LRO-Ex5-17] (puzzle: Exclusion 5)”, the “apparent KD of MS2 coat protein” value under setting [2] was 15.6 nM.

Regarding “UUAGAUUGAGGAUAUUUGGAUCCGUACAUGAGGAUCACCCAUGUGUGUAGCACAUUCAACGGAGAAGGCGGUUUCU [Eternabot (L1) Solution 73] (Eterna round: R97, puzzle: Exclusion 5)”, the “apparent KD of MS2 coat protein” value (input ligand: FMN 200 uM) is 143 nM and the “apparent KD of MS2 coat protein” value (input ligand: none) worked out at 256 nM.

Consider “AUGUUACAUGAGGAUCACCCAUGUCAGGAUAUCUAUCAUAGCAUAGAAAUAUGCGGGUAGAGAAGGGACUAUCC [ChP Ext 10-04-2015 #5] (puzzle: Exclusion 1)”, for which the “apparent KD of MS2 coat protein” value under setting [2] worked out at 14.7 nM.

As for “AGUUGGCGAGGAUAUACAUGAGGAUCACCCAUGUAAAAAAAAAAAAAAAAAACUUCAUGUAGAAGGCGCUGACA [Starry Exclusion 3.4 (biggestlegoheroicafanever round 1 mod)] (Eterna round: R96, puzzle: Exclusion 3)”, the “apparent KD of MS2 coat protein” value (input ligand: FMN 200 uM) was determined as 327 nM, the “apparent KD of MS2 coat protein” value under setting [4] amounted to 200 nM and the “apparent KD of MS2 coat protein” value (input ligand: none) turned out to be 373 nM.

In the case of “GGUGCGUUUGUGAGGAUAUGCUGGUCCUUGGUUCGGCAGAAGGCACAUGAGGAUCACCCAUGUGGUGUCGUGCC [salish99_Bmod_Ex4_045] (puzzle: Brourd's mod of Exclusion 4)”, the “apparent KD of MS2 coat protein” value under setting [2] worked out at 33.1 nM.

In the case of “GGUAGAGUGGUAGGAUAUCCGUCUGUUUCAGUCGGAGAAGGGCCACAGUCACUGGGUCCUAAUAUCAUGGAGACCUGAUCUACU [pwkr exNG1 F6.13] (Eterna round: R96, puzzle: Exclusion NG 1)”, the “apparent KD of MS2 coat protein” value stood at 785 nM (input ligand: FMN 200 uM), 337 nM under setting [4] and 385 nM (input ligand: none).

As for “CAAAGAUAAGGAUAUUGAAGGUUCGACAUGAGGAUCACCCAUGUUAUGUUGGAAAAGGGACAAGAAGGUAUGAAAU [salish99_ex5_r4_213] (Eterna round: R97, puzzle: Exclusion 5)”, the “apparent KD of MS2 coat protein” value (input ligand: FMN 200 uM) turned out to be 41.5 nM and the “apparent KD of MS2 coat protein” value (input ligand: none) amounted to 40.3 nM.

Regarding “AAUAACAAGCCGAUCCUUCACAUGAGGAUCACCCAUGUGUUCGUCUUGUAAAGUACUAUCACGAAAGUGAUAGUACA (Eterna round: R97, puzzle: Sensor, turn-off variant 1)”, the “apparent KD of MS2 coat protein” value (input ligand: FMN 200 uM) came out at 18 nM and the “apparent KD of MS2 coat protein” value (input ligand: none) came to 19.1 nM.

For the sequence “UCCAAGUUUGUAGGAUAUACUCUCCUUUGGAGAGUAGAAGGACAUGAGGAUCACCCAUGUUGUAUAAAUUUGGGAUGUUCCUCG [random3] (Eterna round: R96, puzzle: Exclusion NG 1)”, the “apparent KD of MS2 coat protein” value by setting is: (input ligand: FMN 200 uM) 122 nM; under setting [4], 51.3 nM; (input ligand: none) 91.8 nM.

Consider “GGCAUGUAAGGAUAUGCCACGCAGUCCUUUGGGCUGCGUAAGCAGAAGGUACAUGAGGAUCACCCAUGUGAUAA [jl-ex4-4.56 ViennaUCT mod] (Eterna round: R97, puzzle: Exclusion 4)”, for which the “apparent KD of MS2 coat protein” value was 865 nM (input ligand: FMN 200 uM) and 591 nM (input ligand: none).

For the origin of these results see the supplement of paper PMC9170038.
